Assay [1] addresses CD3 on Jurkat-Lucia NFAT reporter T lymphocytes (UniProt P07766 23-207). The assay is described as follows: cell-based or functional assay.
Assay [2] concerns the target T1, CD79b on malignant B cell lines (BJAB, Daudi, SUDHL-4, Nalm-6) (UniProt P40259 29-229, limits assumed).
T1 construct: whole, on cells; also called malignant B cells
T1 sequence (looked up): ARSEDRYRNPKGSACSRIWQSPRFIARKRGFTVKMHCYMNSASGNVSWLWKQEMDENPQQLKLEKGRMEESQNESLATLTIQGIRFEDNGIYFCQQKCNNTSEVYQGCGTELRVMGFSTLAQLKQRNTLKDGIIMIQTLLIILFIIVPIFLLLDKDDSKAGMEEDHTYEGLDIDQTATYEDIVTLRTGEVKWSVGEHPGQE
Put plainly: flow cytometry (MFI of PE) on BJAB cells. The protocol:
(§1) To evaluated the affinities of chCD79b×msnCD3 antibodies to malignant B cell lines. BJAB, Daudi, SUDHL-4 and Nalm-6 cells were purchased from ATCC. For each different cell line, 5×10⁴ cells were mixed with serially diluted antibodies Pola/msnCD3, 22D10/msnCD3, 44G2/msnCD3, 48H10/msnCD3 and 57B9/msnCD3, Mosunetuzumab, and negative control Human IgG Isotype Control (Invitrogen Catalog #02-7102) and incubated on ice for 30 minutes. After incubation, cells were washed twice and detected with an anti-human IgG PE secondary antibody (ebioscience. Cat: 12-4998-82). For analysis, the mean fluorescence intensity (MFI of PE) of each antibody was determined and plotted using GraphPad prism software (version 10.10.1; GraphPad Software Inc).

Assay [3] addresses T1, CD79b on malignant B cell lines (BJAB, …). The assay is described as follows: flow cytometry (MFI of PE) on Daudi cells. The method, then:
as §1

For assay [4] the target is unchanged. Put plainly: flow cytometry (MFI of PE) on SUDHL-4 cells. The protocol:
as §1

Assay [5] has the same target. The assay is described as follows: flow cytometry (MFI of PE) on Nalm-6 cells. The method, then: as §1
Assay [6] addresses T2, antigen on malignant B cell lines (BJAB, Daudi, SUDHL-4, Nalm-6) bound by Mosunetuzumab, not named in the ….
T2 chain: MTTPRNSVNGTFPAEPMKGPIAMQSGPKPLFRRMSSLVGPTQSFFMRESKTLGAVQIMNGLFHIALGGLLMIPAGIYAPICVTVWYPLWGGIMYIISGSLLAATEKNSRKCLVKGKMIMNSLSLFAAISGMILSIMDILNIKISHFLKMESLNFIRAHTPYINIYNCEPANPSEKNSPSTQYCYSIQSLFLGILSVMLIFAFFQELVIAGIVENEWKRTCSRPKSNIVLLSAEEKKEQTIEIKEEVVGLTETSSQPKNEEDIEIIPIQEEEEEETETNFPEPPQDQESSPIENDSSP
The assay is described as follows: flow cytometry (MFI of PE) on BJAB cells. The method, then:
as §1

For assay [7], the target named is T2, antigen on malignant B cell lines …. The assay is described as follows: flow cytometry (MFI of PE) on Daudi cells. The method, then: as §1
Assay [8] shares this target. The assay is described as follows: flow cytometry (MFI of PE) on SUDHL-4 cells. The method, then: as §1

Residue numbers refer to the chain shown, from its start.

CD3 on Jurkat-Lucia NFAT reporter T lymphocytes, sequence (P07766 23-207): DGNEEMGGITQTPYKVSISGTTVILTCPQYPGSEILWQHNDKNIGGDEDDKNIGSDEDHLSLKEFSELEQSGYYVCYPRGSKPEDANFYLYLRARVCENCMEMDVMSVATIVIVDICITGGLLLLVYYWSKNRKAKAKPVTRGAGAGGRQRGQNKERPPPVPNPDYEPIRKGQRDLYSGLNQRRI

B1: Pola/msnCD3 (bispecific antibody, human IgG1, kappa, N297G)
light: DIQLTQSPSSLSASVGDRVTITCKASQSVDYEGDSFLNWYQQKPGKAPKLLIYAASNLESGVPSRFSGSGSGTDFTLTISSLQPEDFATYYCQQSNEDPLTFGQGTKVEIKRTVAAPSVFIFPPSDEQLKSGTASVVCLLNNFYPREAKVQWKVDNALQSGNSQESVTEQDSKDSTYSLSSTLTLSKADYEKHKVYACEVTHQGLSSPVTKSFNRGEC
heavy: EVQLVESGGGLVQPGGSLRLSCAASGYTFSSYWIEWVRQAPGKGLEWIGEILPGGGDTNYNEIFKGRATFSADTSKNTAYLQMNSLRAEDTAVYYCTRRVPIRLDYWGQGTLVTVSSASTKGPSVFPLAPSSKSTSGGTAALGCLVKDYFPEPVTVSWSSGALTSGVHTFPAVLQSSGLYSLSSVVTVPSSSLGTQTYICNVNHKPSNTKVDKKVEPKSCDKTHTCPPCPAPELLGGPSVFLFPPKPKDTLMISRTPEVTCVVVDVSHEDPEVKFNWYVDGVEVHNAKTKPREEQYGSTYRVVSVLTVLHQDWLNGKEYKCKVSNKALPAPIEKTISKAKGQPREPQVYTLPPSRDELTKNQVSLSCAVKGFYPSDIAVEWESNGQPENNYKTTPPVLDSDGSFFLVSKLTVDKSRWQQGNVFSCSVMHEALHNRFTQKSLSLSPGK
chain: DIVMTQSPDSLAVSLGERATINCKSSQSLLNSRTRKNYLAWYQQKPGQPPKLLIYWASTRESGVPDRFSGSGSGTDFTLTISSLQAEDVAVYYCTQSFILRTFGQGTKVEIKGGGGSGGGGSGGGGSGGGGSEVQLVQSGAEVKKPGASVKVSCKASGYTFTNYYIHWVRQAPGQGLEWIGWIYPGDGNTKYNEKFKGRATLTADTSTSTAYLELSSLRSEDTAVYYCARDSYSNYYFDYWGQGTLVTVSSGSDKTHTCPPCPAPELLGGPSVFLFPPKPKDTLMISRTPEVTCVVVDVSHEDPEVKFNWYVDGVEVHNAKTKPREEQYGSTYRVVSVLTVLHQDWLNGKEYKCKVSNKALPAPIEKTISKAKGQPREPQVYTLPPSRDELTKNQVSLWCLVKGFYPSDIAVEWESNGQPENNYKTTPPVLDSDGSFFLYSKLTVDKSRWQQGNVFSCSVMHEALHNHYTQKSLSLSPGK
notes: also called CD79b/CD3 bispecific antibody; chCD79b×msnCD3
For the molecule B1, the “T cell activation effect, NFAT-Luc reporter, EC50 nM” value (shortened to “T cell activation effect”) in assay [1] was roughly 15.4 nM. The EC50 in assay [2] was found to be 18.9 nM; in assay [3], 4.04 nM; in assay [4], 15.5 nM.

B2: 44G2/msnCD3 (bispecific antibody, human IgG1, kappa, N297G)
light: DLVMTQTPSSVSAAVGGTVSINCRASEDIENYLAWYQQKPGQPPKLLIYRASTLSSGVSSRFSGSGSGTEFTLTISGVQPDDAATYYCQQGYRNSNVDNPFGGGTEMVVKRTVAAPSVFIFPPSDEQLKSGTASVVCLLNNFYPREAKVQWKVDNALQSGNSQESVTEQDSKDSTYSLSSTLTLSKADYEKHKVYACEVTHQGLSSPVTKSFNRGEC
heavy: QSVRETGGGLVQPGGSLKLSCKASGFTINIDYWISWVRQAPGKGLEWIGIIDPGDGTTYFAIWVNGRFTISFDNTQNTVDLQMNSLTAADTATYFCVREFSASAYQYDLWGPGTLVTVSSASTKGPSVFPLAPSSKSTSGGTAALGCLVKDYFPEPVTVSWSSGALTSGVHTFPAVLQSSGLYSLSSVVTVPSSSLGTQTYICNVNHKPSNTKVDKKVEPKSCDKTHTCPPCPAPELLGGPSVFLFPPKPKDTLMISRTPEVTCVVVDVSHEDPEVKFNWYVDGVEVHNAKTKPREEQYGSTYRVVSVLTVLHQDWLNGKEYKCKVSNKALPAPIEKTISKAKGQPREPQVYTLPPSRDELTKNQVSLSCAVKGFYPSDIAVEWESNGQPENNYKTTPPVLDSDGSFFLVSKLTVDKSRWQQGNVFSCSVMHEALHNRFTQKSLSLSPGK
chain: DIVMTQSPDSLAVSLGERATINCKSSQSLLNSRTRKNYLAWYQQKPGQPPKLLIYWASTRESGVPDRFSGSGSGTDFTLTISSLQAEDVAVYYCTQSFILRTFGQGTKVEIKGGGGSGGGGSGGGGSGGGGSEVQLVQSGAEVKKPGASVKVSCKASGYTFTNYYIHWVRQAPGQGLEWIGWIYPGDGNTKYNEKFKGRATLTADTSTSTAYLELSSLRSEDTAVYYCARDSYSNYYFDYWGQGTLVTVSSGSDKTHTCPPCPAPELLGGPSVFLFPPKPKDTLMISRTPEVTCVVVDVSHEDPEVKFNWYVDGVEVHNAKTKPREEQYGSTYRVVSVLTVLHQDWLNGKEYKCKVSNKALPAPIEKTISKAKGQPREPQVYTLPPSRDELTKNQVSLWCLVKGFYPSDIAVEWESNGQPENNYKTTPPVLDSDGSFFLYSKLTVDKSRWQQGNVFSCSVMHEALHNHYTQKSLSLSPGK
notes: as for B1
Turning to B2, the “T cell activation effect” value in assay [1] was determined as 1.12 nM. The EC50 in assay [2] was 4.33 nM; in assay [3] it was 0.614 nM; in assay [5], 9.53 nM; in assay [4], 1.73 nM.

B3: 48H10/msnCD3 (bispecific antibody, human IgG1, kappa, N297G)
light: B2 light with D1A, R24Q, N31S, A34T, I48M, G64A, S95K, N96D, M107V
heavy: B2 heavy with R4K, K18T, F72T, T75A, V97A
chain: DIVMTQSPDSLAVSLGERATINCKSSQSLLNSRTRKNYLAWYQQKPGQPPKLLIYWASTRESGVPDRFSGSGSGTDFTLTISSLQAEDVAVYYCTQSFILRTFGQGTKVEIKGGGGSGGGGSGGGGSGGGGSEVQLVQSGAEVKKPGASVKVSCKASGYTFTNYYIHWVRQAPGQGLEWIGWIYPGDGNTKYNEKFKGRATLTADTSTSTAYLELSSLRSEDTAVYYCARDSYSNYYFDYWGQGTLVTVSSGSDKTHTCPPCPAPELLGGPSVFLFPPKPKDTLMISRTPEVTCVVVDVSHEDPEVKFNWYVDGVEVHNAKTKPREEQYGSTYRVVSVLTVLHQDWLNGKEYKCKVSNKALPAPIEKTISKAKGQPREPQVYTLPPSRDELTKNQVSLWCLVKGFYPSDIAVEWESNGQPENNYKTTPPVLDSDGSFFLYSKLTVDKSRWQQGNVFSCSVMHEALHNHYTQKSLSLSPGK
notes: as for B1
On to B3, for which, in assay [1], the “T cell activation effect” value stood at 1.91 nM. Besides, the EC50 turned out to be 2.88 nM in assay [2], 1.28 nM in assay [3], 19 nM in assay [5] and 3.23 nM in assay [4].

B4: 57B9/msnCD3 (bispecific antibody, human IgG1, kappa, N297G)
light: ALVMTQTPSSVSADVGGTVSINCQASEDIESYLAWYQQKPGQPPKLLIYFTSNLASGVPSRFKGSGSGTEYTLTISGVQPDDAATYYCQQGYRNSDVHNPFGGGTEVVVKRTVAAPSVFIFPPSDEQLKSGTASVVCLLNNFYPREAKVQWKVDNALQSGNSQESVTEQDSKDSTYSLSSTLTLSKADYEKHKVYACEVTHQGLSSPVTKSFNRGEC
heavy: QSVRETGGGLVQPGGSLTLSCEASEFTINIDYWISWVRQAPGKGLEWIGIIDPGDGTTYFAIWVNGRFTITRNTNLNTVDLKMTSLTEADTATYFCAREVSASAYQYDLWGPGTLVTVSSASTKGPSVFPLAPSSKSTSGGTAALGCLVKDYFPEPVTVSWSSGALTSGVHTFPAVLQSSGLYSLSSVVTVPSSSLGTQTYICNVNHKPSNTKVDKKVEPKSCDKTHTCPPCPAPELLGGPSVFLFPPKPKDTLMISRTPEVTCVVVDVSHEDPEVKFNWYVDGVEVHNAKTKPREEQYGSTYRVVSVLTVLHQDWLNGKEYKCKVSNKALPAPIEKTISKAKGQPREPQVYTLPPSRDELTKNQVSLSCAVKGFYPSDIAVEWESNGQPENNYKTTPPVLDSDGSFFLVSKLTVDKSRWQQGNVFSCSVMHEALHNRFTQKSLSLSPGK
chain: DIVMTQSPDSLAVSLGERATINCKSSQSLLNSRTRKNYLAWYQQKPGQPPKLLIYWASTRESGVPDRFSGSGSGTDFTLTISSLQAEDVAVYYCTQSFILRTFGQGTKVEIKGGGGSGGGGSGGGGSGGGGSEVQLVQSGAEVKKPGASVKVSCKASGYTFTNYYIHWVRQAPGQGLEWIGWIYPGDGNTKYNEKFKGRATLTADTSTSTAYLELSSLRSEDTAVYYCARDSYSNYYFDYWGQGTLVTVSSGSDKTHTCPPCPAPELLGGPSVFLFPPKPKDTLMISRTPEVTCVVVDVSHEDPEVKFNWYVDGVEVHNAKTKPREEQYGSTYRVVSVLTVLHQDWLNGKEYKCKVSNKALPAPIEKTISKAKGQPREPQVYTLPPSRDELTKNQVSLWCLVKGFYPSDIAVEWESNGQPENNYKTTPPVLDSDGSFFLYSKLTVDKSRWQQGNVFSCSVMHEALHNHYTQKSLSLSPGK
notes: also called 57B9/mscCD3; CD79b/CD3 bispecific antibody
As for B4, the “T cell activation effect” value in assay [1] is roughly 24 nM. The EC50 is 15.1 nM in assay [2], 4.59 nM in assay [3], 9510 nM in assay [5] and 11.9 nM in assay [4].

B5: Mosunetuzumab (bispecific antibody)
chain 1: not shown
chain 2: DIQMTQSPSSLSASVGDRVTITCRASSSVSYMHWYQQKPGKAPKPLIYAPSNLASGVPSRFSGSGSGTDFTLTISSLQPEDFATYYCQQWSFNPPTFGQGTKVEIKRTVAAPSVFIFPPSDEQLKSGTASVVCLLNNFYPREAKVQWKVDNALQSGNSQESVTEQDSKDSTYSLSSTLTLSKADYEKHKVYACEVTHQGLSSPVTKSFNRGEC
chain 3: EVQLVQSGAEVKKPGASVKVSCKASGYTFTNYYIHWVRQAPGQGLEWIGWIYPGDGNTKYNEKFKGRATLTADTSTSTAYLELSSLRSEDTAVYYCARDSYSNYYFDYWGQGTLVTVSSASTKGPSVFPLAPSSKSTSGGTAALGCLVKDYFPEPVTVSWNSGALTSGVHTFPAVLQSSGLYSLSSVVTVPSSSLGTQTYICNVNHKPSNTKVDKKVEPKSCDKTHTCPPCPAPELLGGPSVFLFPPKPKDTLMISRTPEVTCVVVDVSHEDPEVKFNWYVDGVEVHNAKTKPREEQYGSTYRVVSVLTVLHQDWLNGKEYKCKVSNKALPAPIEKTISKAKGQPREPQVYTLPPSREEMTKNQVSLSCAVKGFYPSDIAVEWESNGQPENNYKTTPPVLDSDGSFFLVSKLTVDKSRWQQGNVFSCSVMHEALHNHYTQKSLSLSPGK
chain 4: not shown
For the molecule B5, in assay [1], the “T cell activation effect” value is 2.06 nM. Besides, the EC50 in assay [6] amounted to 50.4 nM; in assay [7], 13.7 nM; in assay [8], 30.6 nM.

B6: 22D10/msnCD3 (bispecific antibody, human IgG1, kappa, N297G)
light: ALVMTQTPSSVSAAVGGTVTINCRASEDIERYLAWYQQKPGQRPKLLIYGASTLASGVPSRFKGSGSGTEYTLTISGVQPDDAATYYCHQGDSSRNVVNVFGGGTEVVVKRTVAAPSVFIFPPSDEQLKSGTASVVCLLNNFYPREAKVQWKVDNALQSGNSQESVTEQDSKDSTYSLSSTLTLSKADYEKHKVYACEVTHQGLSSPVTKSFNRGEC
heavy: QSVEESGGRLVTPGTPLTLTCTASGFTINDYHMNWVRQAPGKGLEWIGIISSNGDTYYASWAKGRFTISRTSTTVDLKMTSLTTEDTATYFCARDDRDRSYAFDPWGPGTLVTVSSASTKGPSVFPLAPSSKSTSGGTAALGCLVKDYFPEPVTVSWSSGALTSGVHTFPAVLQSSGLYSLSSVVTVPSSSLGTQTYICNVNHKPSNTKVDKKVEPKSCDKTHTCPPCPAPELLGGPSVFLFPPKPKDTLMISRTPEVTCVVVDVSHEDPEVKFNWYVDGVEVHNAKTKPREEQYGSTYRVVSVLTVLHQDWLNGKEYKCKVSNKALPAPIEKTISKAKGQPREPQVYTLPPSRDELTKNQVSLSCAVKGFYPSDIAVEWESNGQPENNYKTTPPVLDSDGSFFLVSKLTVDKSRWQQGNVFSCSVMHEALHNRFTQKSLSLSPGK
chain: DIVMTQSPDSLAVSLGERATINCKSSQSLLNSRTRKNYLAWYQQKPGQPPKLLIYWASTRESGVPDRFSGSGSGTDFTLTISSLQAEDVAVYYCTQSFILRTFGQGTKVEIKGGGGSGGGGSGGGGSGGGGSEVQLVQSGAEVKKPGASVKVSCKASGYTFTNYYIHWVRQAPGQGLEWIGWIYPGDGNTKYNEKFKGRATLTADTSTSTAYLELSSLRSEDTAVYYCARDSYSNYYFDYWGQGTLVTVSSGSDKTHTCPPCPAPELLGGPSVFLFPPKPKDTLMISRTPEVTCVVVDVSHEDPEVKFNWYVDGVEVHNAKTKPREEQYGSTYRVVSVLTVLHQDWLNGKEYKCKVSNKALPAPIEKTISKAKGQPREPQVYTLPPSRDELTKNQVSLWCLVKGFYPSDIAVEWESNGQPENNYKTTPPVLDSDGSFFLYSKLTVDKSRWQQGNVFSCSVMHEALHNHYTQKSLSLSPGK
notes: as for B1
B6: in assay [1], the “T cell activation effect” value came to 866 nM. Moreover, the EC50 was found to be 1.24 nM in assay [2] and 17.1 nM in assay [3].
